Like-named read-outs stand apart in the source and are kept apart here.
What was measured:
Assay in all cases: crystal structure
[1] = target: His-ICP0 (HSV-1 strain KOS infected cell protein 0, residues A636-Q776) (herpes simplex virus 1 (HSV-1), strain KOS)
[2] = target: His-ICP0 (HSV-1 strain KOS infected cell protein 0, residues A636-Q776) (herpes simplex virus 1 (HSV-1), strain KOS); remark: listed apart in the source
[3] = target: proteolytic fragment of his-ICP0 391-776 (HSV-1 strain KOS) that crystallised (herpes simplex virus 1 (HSV-1), strain KOS)

| Substance | stoichiometry N [1] | stoichiometry N [2] | stoichiometry N [3] |
| --- | --- | --- | --- |
| His-ICP0 (HSV-1 strain KOS infected cell protein 0, residues A636-Q776) (domain or fragment) | 2 | 4 |  |
| proteolytic fragment of his-ICP0 391-776 (HSV-1 strain KOS) that crystallised (domain or fragment) |  |  | 2 |

From paper PMC10827139
